Patent US5451369A, “Bacteriocidal surfaces and articles with attached bacteriocin” (The State of Oregon Acting By and Through The State Board …, priority 1993, dated 1995)
Where no end group is shown, it is not given here.

Legend:
[1] = tested on: gram-positive spoilage and pathogenic bacteria; conditions: various foods (dairy, meats and others); cited from earlier work
[2] = tested on: Pediococcus pentosaceus strain FBB61-2; assay: Bioassay of adsorbed nisin: wafers placed face down on seeded MRS agar, inhibition zones; format: cell-based; conditions: hydrophilic wafers with nisin adsorbed from 0.1 to 1.0 mg/mL solutions, 4° C. 24 hours then 37° C.
Method: The activity of adsorbed nisin was evaluated by a bioassay performed as follows: Petri dishes (150×25 mm) containing MRS agar (Difco, Detroit, Mich.) were seeded with 0.1% v/v of a standardized overnight culture of Pediococcus pentosaceus strain FBB61-2 bacteria. Silicon wafers having hydrophilic surfaces were prepared as described above. Such wafers were prepared with and without adsorbed nisin. Wafers were placed face down directly onto the seeded agar surfaces. The Petri dishes were then incubated at 4° C. for 24 hours, then incubated at 37° C.
Referring to FIG. 2, the silicon wafers numbered 1-10 were subjected to adsorption of nisin from 0.1 to 1.0 mg/mL nisin solutions, respectively (in 0.1 mg/mL increments). […] Qualitatively, it can be seen in FIG. 2 that the amount of nisin antimicrobial activity associated with the nisin-coated wafers (as indicated by the diameters of the respective inhibition zones) corresponds to the mass of nisin that actually adsorbed to the respective wafer as shown in FIG. 1; i.e., the smallest inhibition zone corresponded with the smallest adsorbed mass of nisin.

[3] = tested on: Pediococcus pentosaceus strain FBB61-2; assay: Desorption of nisin from wafers by rinsing, followed by agar-well diffusion assay; format: cell-based
Method: Nisin was adsorbed to hydrophilic and hydrophobic silicon wafers as described in example 1. We then attempted to desorb nisin from the wafers by placing 50 μL of 0.01M phosphate buffer (pH 6.0) containing 1% polyoxyethylene sorbitan (Tween 80) on each wafer and "agitating" the droplet over the entire wafer surface using a pipette tip. The 50 μL droplet was then transferred to 5.6-mm diameter wells that had been made in seeded agar. As controls, we also attempted to desorb nisin from nisin-coated wafers using the phosphate buffer without Tween 80.
In FIG. 3, the activity of desorbed nisin (from hydrophilic surfaces) is seen as inhibition zones in the agar-well diffusion assay. The amount of recovered nisin roughly corresponded to the relative mass of nisin initially adsorbed to the wafers, similar to the previously described relationships shown in FIGS. 1 and 2. The only exception was the inhibition zone of well 10, wherein the unusually small diameter of the inhibition zone resulted from most of the desorbed nisin being lost during manipulations.
It should be noted that the amount of nisin that became adsorbed onto the wafer surfaces was an amount sufficient for inhibition of susceptible bacteria. Commonly, about 100 Units/g are used in food products to prevent the outgrowth of gram-positive bacterial spores and vegetative cells. […]

[4] = Nisin adsorption to silicon wafers measured by ellipsometry (hydrophilic surface); format: physicochemical; conditions: hydrophilic silicon wafer; nisin concentration range 0.1 to 1.0 mg/mL
Description: (§1) This example is an investigation of the binding ability of nisin on hydrophilic surfaces and on such surfaces made strongly hydrophobic by silanization. As representative hydrophilic surfaces, we selected monocrystalline silicon because this material is homogeneous, has substantially no pores or surface cavities, and has optical properties amenable to analysis using a laser beam.
(§2) Optically flat, monocrystalline silicon wafers (Wacker Siltronic Corp., Portland, Oreg.) having 1-0-0 orientation and a resistivity of 0.1 to 0.16 ohm.cm were cut into 1×2 cm wafers using a tungsten knife. The wafer surfaces were polished to a mirror finish.
A first quantity of wafers was made hydrophilic by oxidation wherein the wafers were immersed in a mixture of NH4 OH:H2 O2 :H2 O (1:1:5) at 80° C. for 15 minutes. The wafers were then rinsed using distilled deionized water followed by an immersion in HCl:H2 O2 :H2 O (1:1:5) for 15 minutes at 80° C. […]
Hydrophilicity and hydrophobicity were confirmed by contact angle analysis according to McGuire, J. Food Eng. […] In brief, hydrophobicity was determined by measuring the nondispersive component of the work Wa^p required to remove water from a surface, wherein Wa^p is defined according to equation (1) in said McGuire reference. This value was gained using contact-angle methods, and all food-contact surfaces can be analyzed in this way. […]

[5] = cited from earlier work
[6] = high-potency grade from Aplin and Barrett Ltd.; cited from earlier work
[7] = Nisin adsorption to silicon wafers measured by ellipsometry (hydrophobic, silanized surface); format: physicochemical
Description: as §1, §2
A second quantity of wafers was made hydrophobic by silanization with dichlorodimethylsilane according to Jonsson et al., J. Colloid Interface Sci. 90:148-163 (1982) .
Hydrophilicity and hydrophobicity were confirmed by contact angle analysis according to McGuire, J. Food Eng. 12:239-247 (1990), incorporated herein by reference. In brief, hydrophobicity was determined by measuring the nondispersive component of the work Wa^p required to remove water from a surface, wherein Wa^p is defined according to equation (1) in said McGuire reference. This value was gained using contact-angle methods, and all food-contact surfaces can be analyzed in this way. […] A low value indicates strong hydrophobicity and a high value indicates strong hydrophilicity. […]

| Substance | control of gram-positive bacteria in foods [1] | diameter of inhibition zone around nisin-containing wafers [2] | desorption by rinsing with phosphate buffer without Tween 80 ([3]; 0.01M phosphate buffer pH 6.0, no Tween 80) | desorption by phosphate buffer containing Tween 80 ([3]; 0.01M phosphate buffer pH 6.0 with 1% Tween 80) | adsorption plateau on hydrophilic surface [4] | period of retained bacteriocidal activity ([5]; ambient temperatures (0°-40° C.)) | stability of activity at pH 11 ([5]; pH 11) | potency of purified dry powder on storage ([5]; refrigeration storage) | nominal nisin activity [6] | reversal of adsorption in more dilute solution ([7]; hydrophilic and hydrophobic wafers, 12-hour post-adsorption exposure to buffer (FIG. 1 circles)) | upper limit (plateau) of adsorbed mass of nisin ([7]; hydrophobic (silanized) silicon wafer, pH 6.0 phosphate buffer, 8 hours contact, consistent with a monolayer) |
| --- | --- | --- | --- | --- | --- | --- | --- | --- | --- | --- | --- |
| Pediocin AcH (KYYGNGVTCGKHSCSVDWGKATTCIINNGAMAWATGGHQGNHKC; ends and bridges not checked; cysteine pairing not given here; UniProt P29430 19-62, looked up) [wide-spectrum bacteriocin produced by lactic-acid bacteria, first identified in 1984] | efficacious in controlling a wide range of spoilage and pathogenic gram-positive bacteria |  |  |  |  |  |  |  |  |  |  |
| Pediocin PA1 (KYYGNGVTCGKHSCSVDWGKATTCIINNGAMAWATGGHQGNHKC; ends and bridges not checked; cysteine pairing not given here; UniProt P29430 19-62, looked up) [wide-spectrum bacteriocin produced by lactic-acid bacteria] | found to control gram-positive bacterial populations |  |  |  |  |  |  |  |  |  |  |
| nisin (ITSISLCTPGCKTGALMGCNMKTATCHCSIHVSK; ends and bridges not checked; also: five thioether crosslinks (ring bridges), places not given here; UniProt P13068 24-57, looked up) | effective in preserving these foods | generally proportional to the log10 concentration of the nisin solution | resistant to desorption | able to desorb nisin | did not attain a plateau value | 16-24 months | can be lost rapidly | retains its potency indefinitely | 45.5×10^6 Units/g | does not appear to reverse | about 0.36 mg/cm^2 |
